Source: article PMC7181604, “Arabidopsis FHY3 and FAR1 integrate light and strigolactone signaling to regulate branching”

Experiments:
GST-SPL15SBP = target: T1, GST-SPL15SBP (Arabidopsis thaliana, UniProt Q9M2Q6 56-133); assay: EMSA; Beyotime EMSA kit, manufacturer's protocol (binding buffer not stated); proteins stored in 5 mM Tris-Cl pH 8.0, 50 mM KCl; conditions: protein: recombinant; tags: GST (N-terminal, pGEX-4T-1); label: biotin; blunt
T1 sequence: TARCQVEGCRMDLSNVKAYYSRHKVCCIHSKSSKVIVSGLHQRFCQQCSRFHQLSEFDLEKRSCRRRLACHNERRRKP

GST-SPL9SBP = target: T2, GST-SPL9SBP (Arabidopsis thaliana, UniProt Q700W2 71-148); assay: as above; conditions: protein: recombinant; tags: GST (N-terminal, pGEX-4T-1); label: biotin; blunt
T2 sequence: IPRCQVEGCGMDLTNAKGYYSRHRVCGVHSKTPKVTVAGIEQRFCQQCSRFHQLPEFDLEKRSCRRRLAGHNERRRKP

His-FHY3-I = target: T3, His-FHY3-I (Arabidopsis thaliana, UniProt Q9LIE5 1-251); assay: EMSA; FHY3-I alone; Beyotime EMSA kit, manufacturer's protocol (binding buffer not stated); proteins stored in 5 mM Tris-Cl pH 8.0, 50 mM KCl; conditions: protein: recombinant; tags: 6xHis (pET28a); label: biotin; blunt
T3 sequence: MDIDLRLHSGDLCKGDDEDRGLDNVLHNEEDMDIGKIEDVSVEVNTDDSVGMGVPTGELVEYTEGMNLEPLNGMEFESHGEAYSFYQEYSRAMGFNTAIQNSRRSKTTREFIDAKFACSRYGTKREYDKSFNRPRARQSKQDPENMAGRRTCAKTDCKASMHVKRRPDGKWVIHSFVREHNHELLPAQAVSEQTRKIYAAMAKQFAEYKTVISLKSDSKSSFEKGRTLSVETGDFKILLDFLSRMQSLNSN

B1: BRC1 promoter EMSA probe (PB01/PB02) (dsDNA)
DNA 1: GAAGAAGCCAGCGAGTCCAACCATTATAGTCATGTGGTCCTCCTGATAATTGCAGGCCTA
DNA 2: TAGGCCTGCAATTATCAGGAGGACCACATGACTATAATGGTTGGACTCGCTGGCTTCTTC
- binding result (GST-SPL15SBP): binds
- binding result (GST-SPL9SBP): binds
- binding result (His-FHY3-I): no binding
